Results on 13 sequences are retold here after the supplement of paper PMC9170038.

In this data set the test system is MS2 coat protein. In words: apparent KD of MS2 coat protein; designed switch direction (-1 OFF switch, 1 ON switch): -1; higher = weaker reporter binding. The method, boiled down:
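SNAP-549-labelled MS2 coat protein was titrated, doubling from 0.7 or 1.5 nM to 3 µM, over designed RNA switches transcribed on Illumina chips by stalled E. coli RNA polymerase. Runs were done without input, with 200 uM small-molecule ligand, or with an oligonucleotide input. Apparent KD is the per-design median over clusters of curve-fitted normalised fluorescence.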

Setting [1] is: Eterna round: R95, input ligand: FMN 200 uM.
Setting [2] is: Eterna round: R95, input ligand: microRNA oligo, concentration not stated.
Setting [3] is: Eterna round: R95, input ligand: none.
The mark [4] stands for this setting: input ligand: microRNA oligo, concentration not stated.

Consider “CUCCUCGUGGCGCCUAAACACAUGAGGAUCACCCAUGUACAGGCUUUUUGCCGUCUUAUAAUAAAACCGAGGAUACG [Cezabi] (puzzle: Sensor v3, turn-off variant 1)”, for which the “apparent KD of MS2 coat protein” value under setting [1] amounted to 19.1 nM, the “apparent KD of MS2 coat protein” value under setting [2] amounted to 63.9 nM and the “apparent KD of MS2 coat protein” value under setting [3] turned out to be 21.2 nM.
In the case of “CGUCUGUAAGGAUAUGGUAGCAUUUACAUGAGGAUCACCCAUGUUACAUGGGACUAGUGAUUAGAAGGUACGAACG [EX5 #55] (Eterna round: R97, puzzle: Exclusion 5)”, the “apparent KD of MS2 coat protein” value by setting is: (input ligand: FMN 200 uM) 276 nM; (input ligand: none) 322 nM.
For “AAGAGAGCAGGAUAUACAUGAGGAUCACCCAUGUGGGAAAUAAGUGGCGUACCACAAAGUAGAAGGGCUUUCCA [jl-ex3-4.80 Eli automod] (Eterna round: R97, puzzle: Exclusion 3)”, in that order: 310 nM and 86.2 nM.
Take “UUAUAGUAUGUAGGAUAUCGGUCAGUUUCUGAUCGAGAAGGACAUGAGGAUCACCCAUGUAAGGCUACCGGUUUCUGGUGGCCG [JL ENG1 3.53] (Eterna round: R96, puzzle: Exclusion NG 1)”: the “apparent KD of MS2 coat protein” value is, setting by setting: (input ligand: FMN 200 uM) 122 nM; under setting [4], 16.5 nM; (input ligand: none) 26.1 nM.
Turning to “UGAGCUACAGGAUAUACAAGGCGACCGUGAGGUCGAAGGUUACAUGAGGAUCACCCAUGUAGAAGGGUAGUUCU [Mat - Exclusion 2 - JL Mod - D15] (Eterna round: R97, puzzle: Exclusion 2)”, the “apparent KD of MS2 coat protein” value (input ligand: FMN 200 uM) turned out to be 130 nM and the “apparent KD of MS2 coat protein” value (input ligand: none) came out at 126 nM.
For “GCAAGAAUAGGAUAUACACCAUGUCAGCUUCUAUACAACGCACAUGAGGAUCACCCAUGUAGAAGGGUUCUCUG [Exclusion-2-#10] (Eterna round: R97, puzzle: Exclusion 2)”, in that order: 358 nM and 365 nM.
As for “AAUAACAUGUUGAUCAAAUACAUGAGGAUCACCCAUGUAAGCUUUUUGUUCGUAGAUUAACACUAAUAAUAAUAAUA [Stov1new/2-B] (Eterna round: R97, puzzle: Sensor, turn-off variant 1)”, the “apparent KD of MS2 coat protein” value (input ligand: FMN 200 uM) came out at 15.8 nM and the “apparent KD of MS2 coat protein” value (input ligand: none) is 16.7 nM.
With “UUGUUAUGUGUAGGAUAUGCAUAUUAUUAUUAUGCAGAAGGACAUGAGGAUCACCCAUGUGUAUUAUUAUUAUAUAUUAUAUAU [Title] (Eterna round: R96, puzzle: Exclusion NG 1)”, the “apparent KD of MS2 coat protein” value under setting [4] amounted to 17.2 nM.
On to “GAGUGACAUGAGGAUCACCCAUGUGAGGAUAUCGGACGGACCAAAUUAACAAUUUUUGCGAGAAGGCACAUCGG [Exclusion 1 V18] (puzzle: Exclusion 1)”, for which the “apparent KD of MS2 coat protein” value under setting [2] amounted to 51.9 nM.
For “GGCCCUAAGGUCAGAUCCACAAGCUUUUUGCUCGUUUUAACAUGAGGAUCACCCAUGUCUAGUGGAUCUGAUCCUCA [Sensor v3, turn-off variant 2 (MOD of Indiso v.3)] (puzzle: Sensor v3, turn-off variant 2)”, the “apparent KD of MS2 coat protein” value came to 16.9 nM under setting [1], 12.1 nM under setting [2] and 20.8 nM under setting [3].
As for “AAGUACCGUCACGAUAGUGAUGGUACAACAAGUGGUGAAACAUGAGGAUCACCCAUGUCCUCAAUUGCUCGUCUUAU [Sensor 3 - 85] (puzzle: Sensor v3, turn-off variant 2)”, the “apparent KD of MS2 coat protein” value is 1030 nM under setting [1], 231 nM under setting [2] and 999 nM under setting [3].
Turning to “GGUUAACAUGAGGAUCACCCAUGUGAGGAUAUGUUCAGGAUGAUAAAUAGAAGAGAUAAUAGAAGGCACUUUGG [Bubbles5] (Eterna round: R97, puzzle: Exclusion 1)”, the “apparent KD of MS2 coat protein” value reads like this: (input ligand: FMN 200 uM) 57.6 nM; (input ligand: none) 39.9 nM.
For “UCGCCGCCCUUGGGCGGCGACAUGAGGAUCACCCAUGUCAAGCUUUUUGCUCGUUUUAUAGCCGGCCUUGGCCGGCA [Olib_3] (Eterna round: R97, puzzle: Sensor, turn-off variant 1)”, in that order: 27.9 nM and 29.4 nM.
